Measured values taken from patent US20170066831A1 (Janssen / Centocor, published 2017).

Columns and labels:
69GQL71-->RDR = target: T1, 69GQL71-->RDR; assay: SPR, ProteOn XPR36, 25 C; mAb captured on anti-Fc surface, ST2L-D1D2 (HH-ST2L) variant injected; 1:1 model
T1 construct: also called HH-ST2L (ST2L-D1D2) variant with 69GQL71 changed to RDR
T1 receptor fragment (Domains I and II): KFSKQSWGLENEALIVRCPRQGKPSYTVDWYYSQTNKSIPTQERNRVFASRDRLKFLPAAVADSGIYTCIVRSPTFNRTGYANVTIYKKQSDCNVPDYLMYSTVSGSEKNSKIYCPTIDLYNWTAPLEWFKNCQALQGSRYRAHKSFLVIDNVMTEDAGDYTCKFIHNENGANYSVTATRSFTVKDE
Method: (§1) Binding studies were performed using the ProteOn XPR36 Protein Interaction Array system (Bio-Rad) (Bravman T, et al. Anal Biochem 358:281-288, 2006). […] Individual anti-ST2L mAb was then captured by flowing (1 μg/mL) antibody solution prepared in PBS containing 0.5% Nonidet P-40 and 0.5% Na-deoxycholate). The signal in the surfaces reached ˜250 resonance units (RU, 1 RU=1 pg protein/mm²) in the anti-Fc-coated surfaces, confirming that these antibodies specifically capture anti-ST2L mAbs. After 90° rotation of the fluid system, wild type of ST2L-D1D2 or variant proteins (0.5 mg/mL in PBS containing 0.5% Nonidet P-40 and 0.5% Na-deoxycholate) was injected in the parallel flow channels. All of these assays were performed at 25° C. The ST2L-D1D2-dependent signals on the surfaces were obtained by double referencing, subtracting the response observed on surfaces immobilizing the antibodies alone, and the signal observed injecting the vehicle alone (which allows correction for binding-independent responses). The resulting sensorgrams were fitted by the simplest 1:1 interaction model (ProteOn analysis software), to obtain the corresponding association and dissociation rate constants (kₐ and kd).

[1] = target: T2, HH-ST2L variant 93NL94 (substitution 93TF94 to 93NL94) (human, UniProt Q01638 19-205); assay: as above
T2 chain: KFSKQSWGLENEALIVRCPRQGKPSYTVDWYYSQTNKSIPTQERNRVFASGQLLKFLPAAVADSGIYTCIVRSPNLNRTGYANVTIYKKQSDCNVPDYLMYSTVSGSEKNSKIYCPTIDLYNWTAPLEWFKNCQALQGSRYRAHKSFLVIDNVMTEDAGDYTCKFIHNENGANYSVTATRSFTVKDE
Method: as §1

B1: STLM208 (antibody, V domains shown)
VH: EVQLLESGGGLVQPGGSLRLSCAASGFTFSIYDMIWVRQAPGKGLEWVSSIRGEGGGTYYADSVKGRFTISRDNSKNTLYLQMNSLRAEDTAVYYCARDPWSTEGSFFVLDYWGQGTLVTVSS
VL: EIVLTQSPATLSLSPGERATLSCRASQSVDDDLAWYQQKPGQAPRLLIYDASNRATGIPARFSGSGSGTDFTLTISSLEPEDFAVYYCQQYITAPLTFGQGTKVEIK
notes: frameworks VH3-23 / Vk-L6
Kd (69GQL71-->RDR): 9.6 pM | koff (69GQL71-->RDR): 9.27e-05 s⁻¹ | kon (69GQL71-->RDR): 1.02e+07 M⁻¹ s⁻¹ | koff [1]: 0.000625 s⁻¹ | kon [1]: 1.27e+07 M⁻¹ s⁻¹
